# Measurements reported in the supplement of paper PMC5998384.
# Legend:
# HeLa Kyoto [1] = test: solubility in G1/S (NP-40 vs SDS abundance) (log2 ratio); higher = more soluble; conditions: cell cycle stage: G1/S
# HeLa Kyoto [2] = test: thermal stability score vs G1/S (z-score of summed log2 fold changes over temperatures); higher = more thermally stable than in G1/S
# HeLa Kyoto [3] = test: solubility change mitosis vs G1/S (difference of NP-40 vs SDS log2 ratios) (log2 ratio difference); higher = more soluble in mitosis
# HeLa Kyoto [4] = test: melting temperature (median over replicates), in situ; higher = more thermally stable
# [5] = cell cycle stage: early G1 (4.5 h after nocodazole release)
# 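For melting temperature (median over replicates), in situ in this document: HeLa Kyoto cells synchronized by double thymidine or nocodazole block, proteins quantified by TMT10plex mass spectrometry, three independent biological replicates.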
# 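For solubility change mitosis vs G1/S (difference of NP-40 vs SDS log2 ratios) in this document: synchronized HeLa Kyoto cells (double thymidine block for G1/S, nocodazole release for mitosis), protein amounts in NP-40 versus SDS lysates quantified by mass spectrometry, three biological replicates.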
# 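For solubility in G1/S (NP-40 vs SDS abundance) in this document: HeLa Kyoto cells arrested at G1/S by double thymidine block, proteins quantified by TMT10plex mass spectrometry in mild NP-40 versus SDS extracts, three biological replicates.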
# 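For thermal stability score vs G1/S (z-score of summed log2 fold changes over temperatures) in this document: synchronized HeLa Kyoto cells, proteins quantified by TMT10plex mass spectrometry, three biological replicates, mitosis taken 0.5 h after nocodazole release, G1/S directly after double thymidine block.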
Sequence,solubility in G1/S (log2) (HeLa Kyoto [1]),thermal stability score (HeLa Kyoto [2]; [5]),thermal stability score (HeLa Kyoto [2]; cell cycle stage: mitosis),solubility change mitosis (log2) (HeLa Kyoto [3]),melting temperature (HeLa Kyoto [4]; cell cycle stage: G1/S) [°C],melting temperature (HeLa Kyoto [4]; cell cycle stage: mitosis) [°C]
MPVQLSEHPEWNESMHSLRISVGGLPVLASMTKAADPRFRPRWKVILTFFVGAAILWLLCSHRPAPGRPPTHNAHNWRLGQAPANWYNDTYPLSPPQRTPAGIRYRIAVIADLDTESRAQEENTWFSYLKKGYLTLSDSGDKVAVEWDKDHGVLESHLAEKGRGMELSDLIVFNGKLYSVDDRTGVVYQIEGSKAVPWVILSDGDGTVEKGFKAEWLAVKDERLYVGGLGKEWTTTTGDVVNENPEWVKVVGYKGSVDHENWVSNYNALRAAAGIQPPGYLIHESACWSDTLQRWFFLPRRASQERYSEKDDERKGANLLLSASPDFGDIAVSHVGAVVPTHGFSSFKFIPNTDDQIIVALKSEEDSGRVASYIMAFTLDGRFLLPETKIGSVKYEGIEFI [CANT1],0.0305,-0.646,-1.1,-0.137,55.2,54.6
MPYEIKKVFASLPQVERGVSKIIGGDPKGNNFLYTNGKCVILRNIDNPALADIYTEHAHQVVVAKYAPSGFYIASGDVSGKLRIWDTTQKEHLLKYEYQPFAGKIKDIAWTEDSKRIAVVGEGREKFGAVFLWDSGSSVGEITGHNKVINSVDIKQSRPYRLATGSDDNCAAFFEGPPFKFKFTIGDHSRFVNCVRFSPDGNRFATASADGQIYIYDGKTGEKVCALGGSKAHDGGIYAISWSPDSTHLLSASGDKTSKIWDVSVNSVVSTFPMGSTVLDQQLGCLWQKDHLLSVSLSGYINYLDRNNPSKPLHVIKGHSKSIQCLTVHKNGGKSYIYSGSHDGHINYWDSETGENDSFAGKGHTNQVSRMTVDESGQLISCSMDDTVRYTSLMLRDYSGQGVVKLDVQPKCVAVGPGGYAVVVCIGQIVLLKDQRKCFSIDNPGYEPEVVAVHPGGDTVAIGGVDGNVRLYSILGTTLKDEGKLLEAKGPVTDVAYSHDGAFLAVCDASKVVTVFSVADGYSENNVFYGHHAKIVCLAWSPDNEHFASGGMDMMVYVWTLSDPETRVKIQDAHRLHHVSSLAWLDEHTLVTTSHDASVKEWTITY [WDR1],-0.153,-0.713,-2.84,-0.128,53.7,52.3
MPYLGSEDVVKELKKALCNPHIQADRLRYRNVIQRVIRYMTQGLDMSGVFMEMVKASATVDIVQKKLVYLYMCTYAPLKPDLALLAINTLCKDCSDPNPMVRGLALRSMCSLRMPGVQEYIQQPILNGLRDKASYVRRVAVLGCAKMHNLHGDSEVDGALVNELYSLLRDQDPIVVVNCLRSLEEILKQEGGVVINKPIAHHLLNRMSKLDQWGQAEVLNFLLRYQPRSEEELFDILNLLDSFLKSSSPGVVMGATKLFLILAKMFPHVQTDVLVRVKGPLLAACSSESRELCFVALCHVRQILHSLPGHFSSHYKKFFCSYSEPHYIKLQKVEVLCELVNDENVQQVLEELRGYCTDVSADFAQAAIFAIGGIARTYTDQCVQILTELLGLRQEHITTVVVQTFRDLVWLCPQCTEAVCQALPGCEENIQDSEGKQALIWLLGVHGERIPNAPYVLEDFVENVKSETFPAVKMELLTALLRLFLSRPAECQDMLGRLLYYCIEEEKDMAVRDRGLFYYRLLLVGIDEVKRILCSPKSDPTLGLLEDPAERPVNSWASDFNTLVPVYGKAHWATISKCQGAERCDPELPKTSSFAASGPLIPEENKERVQELPDSGALMLVPNRQLTADYFEKTWLSLKVAHQQVLPWRGEFHPDTLQMALQVVNIQTIAMSRAGSRPWKAYLSAQDDTGCLFLTELLLEPGNSEMQISVKQNEARTETLNSFISVLETVIGTIEEIKS [AP4B1],-0.123,-0.012,0.298,-0.136,49.3,49.7
MQDDSIEASTSISQLLRESYLAETRHRGNNERSRAEPSSNPCHFGSPSGAAEGGGGQDDLPDLSAFLSQEELDESVNLARLAINYDPLEKADETQARKRLSPDQMKHSPNLSFEPNFCQDNPRSPTSSKESPQEAKRPQYCSETQSKKVFLNKAADFIEELSSLFKSHSSKRIRPRACKNHKSKLESQNKVMQENSSSFSDLSERRERSSVPIPIPADTRDNEVNHALEQQEAKRREAEQAASEAAGGDTTPGSSPSSLYYEEPLGQPPRFTQKLRSREVPEGTRVQLDCIVVGIPPPQVRWYCEGKELENSPDIHIVQAGNLHSLTIAEAFEEDTGRYSCFASNIYGTDSTSAEIYIEGVSSSDSEGDPNKEEMNRIQKPNEVSSPPTTSAVIPPAVPQAQHLVAQPRVATIQQCQSPTNYLQGLDGKPIIAAPVFTKMLQNLSASEGQLVVFECRVKGAPSPKVEWYREGTLIEDSPDFRILQKKPRSMAEPEEICTLVIAEVFAEDSGCFTCTASNKYGTVSSIAQLHVRGNEDLSNNGSLHSANSTTNLAAIEPQPSPPHSEPPSVEQPPKPKLEGVLVNHNEPRSSSRIGLRVHFNLPEDDKGSEASSEAGVVTTRQTRPDSFQERFNGQATKTPEPSSPVKEPPPVLAKPKLDSTQLQQLHNQVLLEQHQLQNPPPSSPKEFPFSMTVLNSNAPPAVTTSSKQVKAPSSQTFSLARPKYFFPSTNTTAATVAPSSSPVFTLSSTPQTIQRTVSKESLLVSHPSVQTKSPGGLSIQNEPLPPGPTEPTPPPFTFSIPSGNQFQPRCVSPIPVSPTSRIQNPVAFLSSVLPSLPAIPPTNAMGLPRSAPSMPSQGLAKKNTKSPQPVNDDNIRETKNAVIRDLGKKITFSDVRPNQQEYKISSFEQRLMNEIEFRLERTPVDESDDEIQHDEIPTGKCIAPIFDKRLKHFRVTEGSPVTFTCKIVGIPVPKVYWFKDGKQISKRNEHCKMRREGDGTCSLHIESTTSDDDGNYTIMAANPQGRISCSGHLMVQSLPIRSRLTSAGQSHRGRSRVQERDKEPLQERFFRPHFLQAPGDMVAHEGRLCRLDCKVSGLPPPELTWLLNGQPVLPDASHKMLVRETGVHSLLIDPLTQRDAGTYKCIATNKTGQNSFSLELSVVAKEVKKAPVILEKLQNCGVPEGHPVRLECRVIGMPPPVFYWKKDNETIPCTRERISMHQDTTGYACLLIQPAKKSDAGWYTLSAKNEAGIVSCTARLDIYAQWHHQIPPPMSVRPSGSRYGSLTSKGLDIFSAFSSMESTMVYSCSSRSVVESDEL [MYPN],0.0329,-0.0918,3.44,-0.108,47.6,48.9
MQGSSLWLSLTFRSARVLSRARFFEWQSPGLPNTAAMENGTGPYGEERPREVQETTVTEGAAKIAFPSANEVFYNPVQEFNRDLTCAVITEFARIQLGAKGIQIKVPGEKDTQKVVVDLSEQEEEKVELKESENLASGDQPRTAAVGEICEEGLHVLEGLAASGLRSIRFALEVPGLRSVVANDASTRAVDLIRRNVQLNDVAHLVQPSQADARMLMYQHQRVSERFDVIDLDPYGSPATFLDAAVQAVSEGGLLCVTCTDMAVLAGNSGETCYSKYGAMALKSRACHEMALRIVLHSLDLRANCYQRFVVPLLSISADFYVRVFVRVFTGQAKVKASASKQALVFQCVGCGAFHLQRLGKASGVPSGRAKFSAACGPPVTPECEHCGQRHQLGGPMWAEPIHDLDFVGRVLEAVSANPGRFHTSERIRGVLSVITEELPDVPLYYTLDQLSSTIHCNTPSLLQLRSALLHADFRVSLSHACKNAVKTDAPASALWDIMRCWEKECPVKRERLSETSPAFRILSVEPRLQANFTIREDANPSSRQRGLKRFQANPEANWGPRPRARPGGKAADEAMEERRRLLQNKRKEPPEDVAQRAARLKTFPCKRFKEGTCQRGDQCCYSHSPPTPRVSADAAPDCPETSNQTPPGPGAAAGPGID [TRMT1],-0.0405,-0.711,-1.01,-0.0538,56.3,56.7
